Laboratory results: the nanobody polyreactivity screen of Harvey et al. (2022)

Experiment: yeast display, Sf9 membrane polyspecificity reagent, FACS + sequencing; frameworks hold sequencing errors
Outline: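 Genes from sorted yeast were amplified by colony PCR, read by MiSeq 2 × 250 sequencing and filtered on CDR length. These cells carried a synthetic nanobody library in Saccharomyces cerevisiae BJ5465 and were sorted by FACS into low and high (top ~1%) gates on anti-HA and streptavidin fluorescence. Polyreactivity is labelled according to the gate of origin.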

## QVQLVESGGGLVQAGGSLRLSCAASGRTFSSYAMGWYRQAPGKEREFVAAISRSGASTRYADSVKGRFTISRDNAKNTVYLQMNSLKPEDTAVYYCAAVWPDVRGYDYWGQGTQVTVSS
  polyreactivity (PSR sort gate): high polyreactivity

## QVQLVESGGGLVQAGGSLRLSCAASGFIFDSYAMGWYRQAPGKERELVAAISWSGSSTYYADSVKGRFTISRDNAKNTVYLQMNSLKPEDTAVYYCAALVYPYWGCSMYYWGQGTQVTVSS
  polyreactivity (PSR sort gate): high polyreactivity

## QVQLQESGGGLVQACGSLCLICAASSYFSTYYSMGWYRKAPSKGRELVAAIDSGSSTNYADSVEGRFTISRDNAKNTVYLQMISLKPGDTAVYYCAAPWGHLVVHPYRGQGTQVTVSS
  polyreactivity (PSR sort gate): high polyreactivity

## QVQHVESGGGLVQAGGSLRLSCAASGRTITNYVMGWYRQSPGKEREFVATITARGGSTNYADSVKGRFTISRDNAKNTVYLQMNSLKPEDTAVYYCAAGRRFTVAYGYFYWGQGTQVTVSS
  polyreactivity (PSR sort gate): high polyreactivity

## QVQLVESGGGLVQAGGSLRLSCAASGSIFGYYTMGLYRQAPGKERELVATINWSGGSTYYADSVKGRFTISRDNAKNTVYLQMNSLKPEDTAVYYCAKTRPYLRYWDSSTYDYWGQGTQVTVSS
  polyreactivity (PSR sort gate): high polyreactivity

## QVQLVESGGGLVQAGGSLRLSCAASGSTFRFNTMGWYRQAPGKERELVAAISYSGGSTYYADSVKGRFTISRDNAKNTVYLQMNSLKPEDTAVYYCAVQAWYLTYSYPYSKGYYWGQGTQVTVSS
  polyreactivity (PSR sort gate): high polyreactivity

## QVQLVESGGGLVQAGGSLRLSCAASGNTFYPYAMGWYRQAPGKERELVAAISFSSGSTYYADSVKGRFTISRDNAKNTVYLQMNSLKPEETAVYYCAAEANGNFAWWEYYYWGQGTQVTVSS
  polyreactivity (PSR sort gate): high polyreactivity

## QVQLVESGGGLVQAGGSLRLSCAASGSTFPRNDMGWYRQAPGNERELVAAISRGGSTNYADSVKGRFTISRDNANNTVYLQMNSMKPEDTAVYYCAAQIFESAYGMDYWGQGTQVTVSS
  polyreactivity (PSR sort gate): low polyreactivity

## QVQLVESGGGLVQAGGSLRLSCAASGITFFYNAMGWYRQAPGKERELVAAISTSGGSTHYADSVKGRFTISRDIAKNTVYLQMNSLKPEDTAVYYCAARGRYRLYGYWGQGTQVTVSS
  polyreactivity (PSR sort gate): high polyreactivity

## QVQLVESGGGLVQAGGSLRLSCAASGRTFLGYTMGWYRQAPGKESEFVAAITFSGDSTYYADSVKGRFTISRDNAKNTVYLQMNSLKPEDTAVYYCAARIKYYTYLFYYWGQGTQVTVSS
  polyreactivity (PSR sort gate): high polyreactivity

## QVQLVESGGGLVQAGGSLRLSVAASGRTFYSYSMGWYRQAHGKERELVASITNGETKNYADSVKGRFTISRDNAKNTVYLQMNSLKPEDTAVYYCAADDSSRTTYDYWGQGTQVTVSS
  polyreactivity (PSR sort gate): low polyreactivity

## QVQLVESGGGLVQAGGSLRLSCAASGSTSWIYAMGWYRQAPGQERELVAAISGRDGSTNYADSVKGRFTISRDNAKNTVYLQMNSLKPEDTAVYYCASYLYKSRYLPEYDYWGQGTQVTVSS
  polyreactivity (PSR sort gate): high polyreactivity

## QVQLVESGGGLVQAGGSLRLSCAASGSIFRCNAMGWYRQAPGKERELVAVINSSGGSTYYADSVKGRFTISRDNAKNTVYLQMNSLKPEDTAVYYCAADLFLDGSSQYDPNWWPDGWNTYRLLGGYWGQGTQVTVSS
  polyreactivity (PSR sort gate): low polyreactivity

## QVQLVESGGGIVQAGVSLRLSCAASGRTFWTNAMGWYRQAPGKERELVAVISTTTGNTYYADSVKGRFTISRDNAKNTVYLQMNSLKPEDTAVYYCNTRTGAFFLSKPYYYWGQGTQVTVSS
  polyreactivity (PSR sort gate): low polyreactivity

## QVQLVESGGGLVQAGGSLRLSCAASGSIFDYNAMGWYRQAPGKERELVAAITYSGGTTYADSVKGRFTISRDNAKNTVYLQMNSLKPEDTAVYYCAATSYARFAYYYWGQGTQVTVSS
  polyreactivity (PSR sort gate): low polyreactivity

## QVQLVESGGGLVQAGGSLRLSCAASGFTFYVNVMGWYRQPPGKEREFVAAIRTRGASTYYADSVKGRFTISRDNAKNTVYLQMNSLKPEDTADYYCAAGWFWNYWYGVSMDYWGQGTQVTVSS
  polyreactivity (PSR sort gate): high polyreactivity

## QVQLVESGGGLVQAGGSLRLSCAASGSIYTNAMGRYRQAPGKERELVAAISWSGGRTYYADSVKGRFTISRDNAKNTVYLQMNILKPEDTAVYYCNTRGTRIASGHYYWGQGNQVTVSS
  polyreactivity (PSR sort gate): high polyreactivity

## QVQLEESGGGLVQAGGSLRLSCAASGNIFSLNGMGRYRQAPGKEREFVAAITWSVGSTYYADSVKGRFSISRDNAKKTVYLQMNSLKPEDTAVYYCAATVSDLYKNEYYYWGQGTQVTVSS
  polyreactivity (PSR sort gate): low polyreactivity

## QVQLVESGGGLVQAGGSLRLSCAASGSIFSRYAMGWYRQAPGKERELVAAISWRGVSTYYADSVKGRFTISRDNAKNTVYLQMNSLKPEDTAVYYCAADTGRYLDSNYWGQGTQVTVSS
  polyreactivity (PSR sort gate): high polyreactivity

## QVQLVESGGGLVQAGGSLRLSCAASGRTFHRYAMGWYRQAPGKERELVATISRGGSTNYADSVKGRFTISRDNAKNTVYLQMHSLKPEDTAVYYCAAESWIYWYPDTGDYWGQGTQVTLSS
  polyreactivity (PSR sort gate): high polyreactivity

## QVQLVESGGGLVQAGGSLRLSCAASGGTIVWNAMGWYRQAPGKEREFVAAITSSGGSTYYADSVKGRFTITRDYAKNTVYLQINSLKPEDTAVDYCNVDTHSSYEFNSWGQGTQVTVSS
  polyreactivity (PSR sort gate): low polyreactivity

## QVQLQESGGGLVQAGGSLRLSCAASGNISQVGVMGWYRQAPGKERELVATINFGGSSYYADSVKGRFTISRDNAKITVYLQMNSLKPEDTAVSYCNAKAYVWYLYDEFGYWGQGTQVTVSS
  polyreactivity (PSR sort gate): low polyreactivity

## QVQLVESGGGLVQAGGSLRLSCAASGITFTSYAMGWYRQAPGKERELVAAISSSGGSTYYADSVKGRFTISRDNAKNTVYLQMNSLKPEDPAVYYCNARPRSRSPRVEYDYWGQGTQVTVSS
  polyreactivity (PSR sort gate): high polyreactivity

## QDQLVESGGGLVQAGGSLRLSCAASGITFDRYALGWYRQAPGKEREFVAAISWRGGSTYYADSVKGRFTISRDNAKNTVYLQMNSLKPEDTAVYYCAVGYYDHDYWYEYWGQGSQVTVSS
  polyreactivity (PSR sort gate): high polyreactivity

## QVQLVESGGGLVQAGGSLRLSCAASGSIFDVNAMGWYRQAPGKEREFVASITWSGGSTYYADSVKGRFTISRDNAKNTVYLQMNSLKPEDTAVYYCAARPVWVSGYLQYVYCGQGTQVTVSS
  polyreactivity (PSR sort gate): low polyreactivity

## QVQLVESGGGLVQAGGSLRLSCAASGRIFNGNAMGWYRQAPGKERELVAAISVSGGSTYYADSVKGRFTISRDNAKNTVYLQMNSLKPEDTAVYYCAARTSSYSFPYAYNYWGQGTQVTVSS
  polyreactivity (PSR sort gate): high polyreactivity

## QVQLVEAGGGLVQAGGSLRLSCAASGSIFGYYAMGWYRQAPGKERELVAAISYRGGSTYYADSVKGRFTISRDNAKNTVYLQMNSLKPEDTAVYYCNAGGRRRIFAHSSTGDYWGQGTQVTVSS
  polyreactivity (PSR sort gate): high polyreactivity

## QVQLVESGGGLVQAGGSLRLSCAASGITFRYSAMGWYRQAPGKERELVAVISTSGGSTYYADSVKGRFTISRDNAKNTVYLQMNSLKPEDTAVYYCAARYTYWGLLRYDYWGQGTQVTVSS
  polyreactivity (PSR sort gate): high polyreactivity

## QVQLVESGGGLVQAGGSLRLSCAASGFIFLVNAMGWYRRGPGTERELVAAISKSTGGTYYADSVKGRFTISRDNAKNTVYLQMNSLKPEDTAVYYCAADEVYPVQRDMDYWGQGTQVTVSS
  polyreactivity (PSR sort gate): low polyreactivity

## QVQLVESGGGLVQAGGSLRLSCAASGSIFALYAMGWYRQAPGKERELVAAISYRGGRTYYADSVKGRFTISRDNAKNTVYLQMNSLKPEDTAVYYCKAAYGTSYLYNSEFYAAFTYDYWGQGTQVTVSS
  polyreactivity (PSR sort gate): low polyreactivity

## QVQLVESGGGLVQAGGSLRLSCAASGIIVSYYAMGWYRQAPGKERELVAAITSGGSTNYADSVKGRFTISRDNAKITVYLQMNSLKPEDTAVYYCAAERGDTAYRKYDYWGQGTQVTVSS
  polyreactivity (PSR sort gate): low polyreactivity

## QVKLVESGGGLVQAGGSLRLSCAASGSTFWIYAMAWYRQAPGKERELVAAISWRGGRTYYADSVKGRFTISRDNAKNTVYLQMNSLKPEDSAVYYCYAQKRDGSMGYWGQGTQVTVSS
  polyreactivity (PSR sort gate): high polyreactivity

## QVQLVESGGGLVQAGGSLRLSCAASGRIFYWYVMGWYRQAPGKERELVASISWSGGSTYYADSVKGRFTISRDNAKNTVYLQMNSLKPEDTAVYYCNAGSVYTVSLPGHPYDYWGQGTQVTVSS
  polyreactivity (PSR sort gate): low polyreactivity

## QVQLVESGGGLVQAGGSLRLSCAASGYIFVVNAMGLDRQAPGKERELVAAIDWGGGSTYADSVKGRFTISRDNAKNTVYLQMNSLKPEDTAVYYCAADLWPYPNDYWGQGTQVTVSS
  polyreactivity (PSR sort gate): low polyreactivity

## QVQLVESGGGLVQAGGSLRLSCAAAGRISVFYTMGWYRQAPGKERVLVAVIRTSGGRTNYADSVKGRFTISRDNAKNTVYLQMNSLKPEDTAVYYWDADAVIEWTEWYSAWWYYYWGQGTQVTVSS
  polyreactivity (PSR sort gate): low polyreactivity

## QVQLEESGGGLVQAGGSLRLSCAASGSIFGFYMGWDRQAPRKEREMVAAISGSGGNTYYADSVKGRFTISRDNAKNTVYLQMNSQKPEDNAVYYCAARGYVWNIGRYYWGQGTQVTVSW
  polyreactivity (PSR sort gate): high polyreactivity

## QVQLVESGGGLVQAGGSLRLSCAASGRIFGVNAMGWYRQAPGKERELVAAISWSGGSTYYADSVKGRFTISRDNAKNTVYLQMNSLKPEDTAVYYCAADIWFYTYYLGQGTQVTVSS
  polyreactivity (PSR sort gate): high polyreactivity

## QLQLVESGGGLVQAGGSLRLSCAASGLIFIYYAMGWYRQAPGKERELVASITNSGGSTYYADSVKGRFTISRDNAKNTVYLQMNSLKPEDTALYYCAADYKTIVQRYGYYYWGQGTQVTVSS
  polyreactivity (PSR sort gate): low polyreactivity

## QVQLVESGGGLVQAGGSLRLSCAASGSIFNPYAMGWSRQAPGKEWELVAAISYDTTSTYYADSVKGRFTISRDNAKNTDYLQMNSLKPEDTAVYYCAARDQYGPGYRSESLDSWGQGTQETVSS
  polyreactivity (PSR sort gate): low polyreactivity

## QVQLVESGGGLVQAGGSLRLSCAASGSIFYGYTMGWYRQAPGKERELVAAITYRGGRTYYADSVKGRFTISRDNAKNTDYLQMNSLKPEDTAVYYCAARYDYFSSKYGYWGQGTQVTVSS
  polyreactivity (PSR sort gate): high polyreactivity

## QVQLLESGGGLVQAGVSLRLRCAPSGGTHKYYTMALYRQAPGKERELDATIRWYGDSTSYADSVKGRFTISRDNAKNTVYLQMNSQNPEDTAVYSCNADYAWYQRKSTVEYDYWVQGTQVTVSS
  polyreactivity (PSR sort gate): low polyreactivity

## QVQLVESGGGLVQAGGSLRLSCAASGSISTYYAMGWYRPAPGKERDLVAAISKSGGSKYYADSVKGRFTISRDNAKNTVYLQMNSLKPEDTAVYYCAARYKGRAFWMDYWGQGTQVTVSS
  polyreactivity (PSR sort gate): high polyreactivity

## QVQLVESGGGLVQAGGSLRLSCAASGSIFEIYAMGWYRQAPGKERELVAAISWSGGRTYYADSVKGRFTISRDNAKNTVYLQMNSLKPEDTAVYYCNAGQWRYPGLYYYWGQVTQVTVSS
  polyreactivity (PSR sort gate): high polyreactivity
